In general, Km refers to the concentration of substrate that gives half-maximal velocity. What is called kcat is the number of substrate molecules converted per active site and unit of time at saturation. What is called kcat/Km is the turnover number divided by the Michaelis constant.

Substrate in series [1]: CCCC(=O)Oc1ccc2c(c1)Oc1cc(OC(=O)CCC)ccc1C21OC(=O)c2ccccc21
Nature of the series: cells, lysate or membranes. Type of series: cell-based, Archaeoglobus fulgidus. As to conditions: bulk reaction; enzyme preparation not told in main text (AFEST displayed on E. coli in the parallel droplet assay).

Substrate in series [2]: CCCC(=O)Oc1ccc([N+](=O)[O-])cc1
Nature of the series: hydrolysis kinetics. Format: biochemical, Archaeoglobus fulgidus. As to conditions: 37°C. The text has this: hydrolysis kinetics on AFEST

B1: AFEST (Archaeoglobus fulgidus DSM 4304) (protein)
chain: MLDMPIDPVYYQLAEYFDSLPKFDQFSSAREYREAINRIYEERNRQLSQHERVERVEDRTIKGRNGDIRVRVYQQKPDSPVLVYYHGGGFVICSIESHDALCRRIARLSNSTVVSVDYRLAPEHKFPAAVYDCYDATKWVAENAEELRIDPSKIFVGGDSAGGNLAAAVSIMARDSGEDFIKHQILIYPVVNFVAPTPSLLEFGEGLWILDQKIMSWFSEQYFSREEDKFNPLASVIFADLENLPPALIITAEYDPLRDEGEVFGQMLRRAGVEASIVRYRGVLHGFINYYPVLKAARDAINQIAALLVFD
notes: pET-28a(+) in E. coli BL21-CodonPlus(DE3), Ni-NTA purified; 5' primer starts … (MLDMPI)
For B1, the Km in series [1] came out at 240 µM. Moreover, in series [2], the Michaelis-Menten constant (Km) is 22.47 µM, the kcat turned out to be 135 s⁻¹ and the kcat/Km was found to be 6.03e+06 M⁻¹ s⁻¹.

B2: AFEST (Archaeoglobus fulgidus DSM 4304; V293E) (protein)
chain: MLDMPIDPVYYQLAEYFDSLPKFDQFSSAREYREAINRIYEERNRQLSQHERVERVEDRTIKGRNGDIRVRVYQQKPDSPVLVYYHGGGFVICSIESHDALCRRIARLSNSTVVSVDYRLAPEHKFPAAVYDCYDATKWVAENAEELRIDPSKIFVGGDSAGGNLAAAVSIMARDSGEDFIKHQILIYPVVNFVAPTPSLLEFGEGLWILDQKIMSWFSEQYFSREEDKFNPLASVIFADLENLPPALIITAEYDPLRDEGEVFGQMLRRAGVEASIVRYRGVLHGFINYYPELKAARDAINQIAALLVFD
notes: as for B1
For the protein B2, in series [2], the Km was 12.13 µM, the kcat amounted to 138 s⁻¹ and the kcat/Km turned out to be 1.14e+07 M⁻¹ s⁻¹.

B3: AFEST (Archaeoglobus fulgidus DSM 4304; F287Y/S94G) (protein)
chain: MLDMPIDPVYYQLAEYFDSLPKFDQFSSAREYREAINRIYEERNRQLSQHERVERVEDRTIKGRNGDIRVRVYQQKPDSPVLVYYHGGGFVICGIESHDALCRRIARLSNSTVVSVDYRLAPEHKFPAAVYDCYDATKWVAENAEELRIDPSKIFVGGDSAGGNLAAAVSIMARDSGEDFIKHQILIYPVVNFVAPTPSLLEFGEGLWILDQKIMSWFSEQYFSREEDKFNPLASVIFADLENLPPALIITAEYDPLRDEGEVFGQMLRRAGVEASIVRYRGVLHGYINYYPVLKAARDAINQIAALLVFD
notes: as for B1
On to B3, for which, in series [2], the Km is 15.42 µM, the kcat came out at 155 s⁻¹ and the kcat/Km came to 1e+07 M⁻¹ s⁻¹.

B4: AFEST (Archaeoglobus fulgidus DSM 4304; V293G) (protein)
chain: MLDMPIDPVYYQLAEYFDSLPKFDQFSSAREYREAINRIYEERNRQLSQHERVERVEDRTIKGRNGDIRVRVYQQKPDSPVLVYYHGGGFVICSIESHDALCRRIARLSNSTVVSVDYRLAPEHKFPAAVYDCYDATKWVAENAEELRIDPSKIFVGGDSAGGNLAAAVSIMARDSGEDFIKHQILIYPVVNFVAPTPSLLEFGEGLWILDQKIMSWFSEQYFSREEDKFNPLASVIFADLENLPPALIITAEYDPLRDEGEVFGQMLRRAGVEASIVRYRGVLHGFINYYPGLKAARDAINQIAALLVFD
notes: as for B1
Consider B4, for which, in series [2], the Km was 9.74 µM, the kcat worked out at 118 s⁻¹ and the kcat/Km was determined as 1.21e+07 M⁻¹ s⁻¹.

For the origin of these results see paper PMC3933655, “An Improved Single Cell Ultrahigh Throughput Screening Method Based on In Vitro Compartmentalization” (PLoS ONE, 2014).
